Experimental findings from patent US11124558B2, “Use of tetranectin and peptide agonists to treat inflammatory diseases” (The Feinstein Institutes for Medical Research, priority 2017, dated 2021) are described below.

“Also recorded” adds a separate entry of the source. Non-standard residues stand in square brackets, D forms with d. No end group written: not given here. Nle = CCCC[C@H](N)C(=O)O

Experiment [1] relates to lethal sepsis (CLP), Balb/C mice. The experiment is described as follows: Lethal sepsis by cecal ligation and puncture (CLP), survival in mice. The experiment is classed as in vivo. The settings on record: male Balb/C mice, given intraperitoneally, survival monitored more than two weeks. The method, then: FIG. 6A-6C: Recombinant TN protected mice against lethal endotoxemia and sepsis. Male Balb/C mice were subjected to lethal endotoxemia (LPS, 5 mg/kg, i.p., Panel A) or sepsis by cecal ligation and puncture (CLP, Panel B, C), and recombinant TN produced in HEK293 (Panel A, B) or E. coli (Panel C) was given intraperitoneally at indicated dosing regimens. Animal survival rates were monitored for more than two weeks to ensure no later death. Shown in Panel B and C is a summary of two independent experiments with similar results.
FIG. 9: N-terminal deletion TN mutant protected mice against lethal sepsis. Male Balb/C mice were subjected to lethal sepsis by cecal ligation and puncture (CLP), and recombinant deletion mutant (ΔTN) was given intrapeitoneally at indicated dosing regimens. Animal survival rates were monitored for more than two weeks to ensure no later death. Shown was a summary of two independent experiments with similar results.
FIG. 10: TN peptide agonist (P11) protected mice against lethal sepsis. Male Balb/C mice were subjected to lethal sepsis by cecal ligation and puncture (CLP), and TN peptide agonist, (P11, […]) (SEQ ID NO:11) was given intrapeitoneally at indicated dosing regimens. Animal survival rates were monitored for more than two weeks to ensure no later death. Shown was a summary of two independent experiments with N=8-18 animals per group.
FIG. 13A-13B: Tetranectin peptide agonists (P2 and P2-M/Nle) protected mice against lethal sepsis. Male Balb/C mice were subjected to lethal sepsis by cecal ligation and puncture (CLP), and TN peptide agonist, P2 (55-KVHMKCFLAFTQTKTF-70) (13A) (SEQ ID NO:2) or P2-M/Nle (54-TKVH(Nle)KSFLAFTQTKT-69) (13B) (SEQ ID NO:13) was given intraperitoneally at indicated dosing regimens. Animal survival rates were monitored for more than two weeks to ensure no later death. Shown was a summary of independent experiment with N=10 animals per group. The Kaplan-Meier method was used to compare the difference in mortality rates between groups. *, P<0.05 versus “CLP+Vehicle” group.
Effects of TN or peptide agonist on LSI. Balb/C mice (both male and female, 7-8 weeks, 20-25 g) are subjected to lethal endotoxemia or sepsis as described above, and the recombinant TN is injected (i.p.) at various doses and time points (2, 24, and 48 h) after the onset of endotoxemia or sepsis. Their effects on the outcomes of LSI is assessed by comparing the long-term (two-week) survival rates between the TN-treated groups with saline vehicle-treated controls. By varying the time points (e.g., 2, 12, 24 or 36 h) when the first dose of TN will be given to animals, the therapeutic windows for the TN-based therapy is estimated. […] It will be critical to continue these exciting experiments using other dosing regimens to further validate TN's protective role in LSI.
To explore the therapeutic potential of the TN-based strategies, the efficacy of TN-specific peptide agonists that would recapitulate the HMGB1-inhibiting capacities is tested using both animal models of lethal endotoxemia and sepsis. A series of peptide agonists have been designed, and chemically synthesized or biologically expressed as recombinant peptide (Table 1, FIG. 7). Peptide agonists will be given to the endotoxemic or septic mice intraperitoneally at various doses and time points after the onset of endotoxemia or sepsis. Their effects on the outcomes of LSI is assessed by comparing the long-term (two-week) survival rates between the peptide agonist groups and the saline vehicle-treated controls.
TN-specific peptide agonists are tested that would recapitulate the HMGB1-inhibiting capacities using both animal models of lethal endotoxemia and sepsis. Peptide agonists are given to the endotoxemic or septic mice intraperitoneally at various doses and time points after the onset of endotoxemia or sepsis. […]

Experiment [2] relates to GRO/CXCL1 and ENA-78/CXCL5 secretion, HuPBMCs. As to the kind of experiment: Cytokine/chemokine secretion by HuPBMCs (Cytokine Antibody Arrays). The class given is cell-based. Conditions: primary human monocytes / HuPBMCs, TN 20 μg/ml, 16 h. The method, then: Human blood was purchased from the Long Island Blood Bank, and HuPBMCs were isolated by density gradient centrifugation through Ficoll, and stimulated with recombinant TN (20 μg/ml) expressed in HEK293 or E. coli for 16 h. The extracellular levels of cytokines and chemokines were determined by Cytokine Antibody Arrays.
In light of the protective roles of these neutrophil-attracting chemokines, CXCL1/KC [67,68] and CXCL5/ENA-78 [69,70] in LSI, it is important to determine whether TN could modulate leukocyte infiltration to facilitate potential pathogen elimination during sepsis.

The subject of another experiment is HMGB1 release. The experiment is described as follows: LPS/SAA-induced HMGB1 release, summary statement (cells not specified). The class given is cell-based.
Experiment [3] relates to HMGB1 release, murine macrophage-like RAW264.7 cells. The experiment is described as follows: SAA-induced HMGB1 release in RAW264.7 cells (Western blotting). The class given is cell-based. Conditions: 16 h, serum-free OPTI-MEM I. As to the method: Murine macrophage-like RAW264.7 cells were cultured in serum-free OPTI-MEM I medium, and stimulated with SAA in the absence of presence of ΔTN (residue 45-181) for 16 h at the indicated concentrations. The extracellular HMGB1 levels were determined by Western blotting, and expressed as % of stimulation in the presence of SAA alone.

With “KVHMKCFLAFTQTKTF (listed as Homo sapiens) [Peptide P2]”, the “protection against lethal sepsis (animal survival)” value (“protection against lethal sepsis” for short) in experiment [1] is on record as “protected”.

As to “QPDGGKTENCAVLSGAANGKWFDKRCRD (listed as Homo sapiens) [Peptide P11]”, the “release of neutrophil-attracting chemokines (CXCL1/GRO-α/KC and CXCL5/ENA-78)” value in experiment [2] is recorded as “specifically stimulated”. Moreover, the “protection against lethal sepsis” value in experiment [1] was “protected; also recorded: significant protection”; in experiment [1] (listed as synthetic peptide corresponding to the plasminogen-binding region (residue 143-1)), “dose-dependent and significant protection”. Also, the “attenuation of LPS/SAA-induced HMGB1 release” value in the experiment with HMGB1 release is listed as “dose-dependently attenuated”.

Turning to “TKVH(Nle)KSFLAFTQTKT (TKVH[Nle]KSFLAFTQTKT) [P2-M/Nle]”, the “protection against lethal sepsis” value in experiment [1] is “protected”.

B1: P12: Recombinant N-terminal deletion mutant of TN, residue 45-181, carbohydrate recognition domain (CRD), expressed in E. coli, SEQ ID NO:12 (protein, listed as Homo sapiens)
chain: ALQTVCLKGTKVHMKCFLAFTQTKTFHEASEDCISRGGTLGTPQTGSENDALYEYLRQSVGNEAEIWLGLNDMAAEGTWVDMTGARIAYKNWETEITAQPDGGKTENCAVLSGAANGKWFDKRCRDQLPYICQFGIV
Turning to B1, the “inhibition of SAA-induced HMGB1 release” value in experiment [3] is given as “dose-dependently attenuated”; in experiment [3] (listed as ΔTN) it was “dose-dependently inhibited”. In addition, the “release of neutrophil-attracting chemokines (CXCL1/GRO-α/KC and CXCL5/ENA-78)” value in experiment [2] is “specifically stimulated”. For the same molecule, the figures for the “protection against lethal sepsis” value in experiment [1], in experiment [1] (listed as N-terminal deletion mutant of TN) and in experiment [1] (listed as ΔTN) were “significant protection”, “significant protection” and “protected”, respectively. Moreover, in the experiment with HMGB1 release, the “attenuation of LPS/SAA-induced HMGB1 release” value was “dose-dependently attenuated”.
